The Kd is the free concentration of one partner at which half of the binding sites on the other are occupied at equilibrium, for simple one-to-one binding. By koff is commonly meant a measure of how fast the partners let go of each other. Usually kon stands for the rate constant with which the complex forms.

The values that follow come from patent US20140349310A1 (Eli Lilly, published 2014).

First the molecules themselves.
B1: anti-c-Met therapeutic antibody C8-H241 (human IgG4 subtype) (antibody, V domains shown)
VH: QVQLVQSGAEVKKPGASVKVSCKASGYTFTDYYMHWVRQAPGQGLEWMGRVNPNRRGTTYNQKFEGRVTMTTDTSTSTAYMELRSLRSDDTAVYYCARANWLDYWGQGTTVTVSS
VL: DIQMTQSPSSLSASVGDRVTITCSVSSSVSSIYLHWYQQKPGKAPKLLIYSTSNLASGVPSRFSGSGSGTDFTLTISSLQPEDFATYYCQVYSGYPLTFGGGTKVEIKR
notes: also called mAb C8-H241

Test [1] has as its target T1, human c-Met ECD expressed as Fc fusion protein with a flag- and His-tag (Flis-tag) at the C-terminus of the Fc (human).
T1 construct: also called human c-Met-ECD-Fc-Flis; c-Met-ECD-Fc-Flis
Briefly: SPR (BIAcore): antibody injected over c-Met-ECD-Fc-Flis captured at 130 Ru.

Test [2] deals with T1, human c-Met ECD expressed as Fc fusion …. The test can be described thus: SPR (Biacore): antibody captured by goat anti-mouse Fc, c-Met ECD-Fc-Flis as analyte, 25 C, 1:1 Langmuir model. On the procedure:
(§1) Briefly described, the anti-c-Met monoclonal antibody of the invention may be dissolved in HBS-EP buffer (150 mM sodium chloride, 3 mM EDTA, 0.005% (w/v) surfactant P-20, and 10 mM N-2-hydroxyethylpiperazine-N′-2-ethanesulfonic acid (HEPES) at pH 7.4; #BR-1001-88). Goat anti-mouse Fc antibody is immobilized on flow cells 1 to 4 of a CM5 sensor chip at a level of 4000 response units (RUs) using amine coupling chemistry to capture anti-c-Met antibodies.
(§2) Binding may be evaluated using multiple analytical cycles. Each cycle is performed at a flow rate of 50 μl/minute, and may consist of the following steps: injection of about 10 μl of an anti-c-Met monoclonal antibody at 10 μg/ml aiming at a capture of 40-100 RUs, injection of 250 μl of human or cynomolgus monkey c-Met-Flis-Fc ECD (starting at 100 nM and using two-fold serial dilutions for each cycle) followed by 20 minutes for dissociation, and regeneration using about 30 μl of 10 mM glycine hydrochloride, pH 1.5. Association and dissociation rates for each cycle may be evaluated using a “1:1 (Langmuir) binding” model in the BIAevaluation software 4.1.
Background: Surface plasmon resonance follows binding to a sensor surface in real time, without labels.

Test [3] addresses T2, cynomolgus monkey c-Met ECD expressed as Fc fusion protein with a flag- and His-tag (Flis-tag) at the … (cynomolgus monkey).
T2 construct: also called cynomolgus monkey c-Met-Flis-Fc ECD
The description is as above. As for the experimental part: as §1, §2

In test [4] the target is B1. Briefly: ELISA control: 2 µg/mL C8-H241 (human IgG4 subtype) coated, no cMet ECD, 0.5 µg/mL biotinylated OptD11 detection.
Test [5] deals with T1, human c-Met ECD expressed as Fc fusion …. Briefly: SPR (BIAcore): antibody injected over c-Met-ECD-Fc-Flis captured at 130 Ru; the sequential experiment also includes C8-H241.

T2 sequence (chain, as listed by the source limits assumed): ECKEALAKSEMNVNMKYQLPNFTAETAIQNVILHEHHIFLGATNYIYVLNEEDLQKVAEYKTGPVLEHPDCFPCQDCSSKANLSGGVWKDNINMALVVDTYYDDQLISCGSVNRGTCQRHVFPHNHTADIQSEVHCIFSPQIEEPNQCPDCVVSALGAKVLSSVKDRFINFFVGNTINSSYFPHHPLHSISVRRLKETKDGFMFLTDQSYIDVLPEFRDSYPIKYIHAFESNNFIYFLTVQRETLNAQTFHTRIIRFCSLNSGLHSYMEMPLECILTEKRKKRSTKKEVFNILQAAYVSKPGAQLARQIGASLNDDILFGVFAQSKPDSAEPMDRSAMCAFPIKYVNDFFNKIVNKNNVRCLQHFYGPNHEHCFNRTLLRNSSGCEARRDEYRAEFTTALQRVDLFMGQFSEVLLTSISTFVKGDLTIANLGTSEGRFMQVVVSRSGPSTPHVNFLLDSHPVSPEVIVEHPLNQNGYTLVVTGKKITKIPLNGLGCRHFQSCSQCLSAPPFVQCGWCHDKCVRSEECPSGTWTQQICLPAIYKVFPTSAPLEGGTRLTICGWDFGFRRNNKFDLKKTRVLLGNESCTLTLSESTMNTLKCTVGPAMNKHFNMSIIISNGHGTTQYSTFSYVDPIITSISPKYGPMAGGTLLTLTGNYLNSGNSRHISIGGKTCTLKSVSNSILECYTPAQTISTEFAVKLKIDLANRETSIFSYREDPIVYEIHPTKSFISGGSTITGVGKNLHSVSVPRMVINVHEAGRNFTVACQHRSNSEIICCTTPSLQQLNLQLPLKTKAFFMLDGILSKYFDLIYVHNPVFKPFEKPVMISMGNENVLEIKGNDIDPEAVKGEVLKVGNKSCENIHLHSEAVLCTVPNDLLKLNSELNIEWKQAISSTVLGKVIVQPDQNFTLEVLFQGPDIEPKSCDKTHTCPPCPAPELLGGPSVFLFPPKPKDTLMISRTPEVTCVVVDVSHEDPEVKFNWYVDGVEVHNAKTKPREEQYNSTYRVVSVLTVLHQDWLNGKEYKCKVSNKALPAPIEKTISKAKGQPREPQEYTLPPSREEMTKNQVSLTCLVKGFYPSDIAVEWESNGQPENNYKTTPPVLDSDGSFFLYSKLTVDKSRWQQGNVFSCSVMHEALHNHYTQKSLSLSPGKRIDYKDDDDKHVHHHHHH
T1 sequence (chain, as listed by the source): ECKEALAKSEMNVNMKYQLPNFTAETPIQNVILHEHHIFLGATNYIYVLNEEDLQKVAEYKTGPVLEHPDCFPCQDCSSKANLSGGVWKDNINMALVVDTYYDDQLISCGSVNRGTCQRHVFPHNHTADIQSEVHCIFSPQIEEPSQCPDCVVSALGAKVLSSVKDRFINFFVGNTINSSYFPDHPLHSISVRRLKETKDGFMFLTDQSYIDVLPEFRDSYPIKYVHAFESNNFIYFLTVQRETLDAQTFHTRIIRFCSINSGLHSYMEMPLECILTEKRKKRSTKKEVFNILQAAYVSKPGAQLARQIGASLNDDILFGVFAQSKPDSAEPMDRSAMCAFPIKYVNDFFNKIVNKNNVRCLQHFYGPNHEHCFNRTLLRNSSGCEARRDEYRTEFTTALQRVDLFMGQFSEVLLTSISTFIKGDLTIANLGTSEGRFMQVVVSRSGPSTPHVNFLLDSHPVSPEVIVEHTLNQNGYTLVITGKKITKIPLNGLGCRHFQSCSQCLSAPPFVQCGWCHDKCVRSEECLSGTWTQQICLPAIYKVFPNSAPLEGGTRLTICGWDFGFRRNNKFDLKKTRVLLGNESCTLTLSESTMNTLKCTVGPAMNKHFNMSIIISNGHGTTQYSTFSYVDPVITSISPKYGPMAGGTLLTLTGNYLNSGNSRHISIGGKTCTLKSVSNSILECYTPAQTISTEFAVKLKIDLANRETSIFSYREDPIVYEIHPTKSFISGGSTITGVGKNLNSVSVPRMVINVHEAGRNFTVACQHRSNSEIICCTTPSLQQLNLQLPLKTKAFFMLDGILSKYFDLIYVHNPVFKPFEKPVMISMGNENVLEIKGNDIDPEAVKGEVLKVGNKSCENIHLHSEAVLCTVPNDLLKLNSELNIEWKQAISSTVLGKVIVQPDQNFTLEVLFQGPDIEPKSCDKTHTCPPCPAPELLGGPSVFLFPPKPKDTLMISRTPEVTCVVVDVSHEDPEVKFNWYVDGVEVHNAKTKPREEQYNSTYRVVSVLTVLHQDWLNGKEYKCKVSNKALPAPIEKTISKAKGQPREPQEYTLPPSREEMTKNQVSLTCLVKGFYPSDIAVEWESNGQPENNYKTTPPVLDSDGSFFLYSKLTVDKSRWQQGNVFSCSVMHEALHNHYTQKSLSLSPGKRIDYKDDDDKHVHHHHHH

With B1, the “Stoichiometry (mAb to cMet-Fc)” value in test [1] turned out to be 0.91.

B2: anti-c-Met monoclonal antibody OptD11 (mouse IgG1 subtype) (antibody, V domains shown)
VH: EVQLQQSGPELVKPGASVRISCKASGYTFTSRYIHWMKQRPGQGLEWIGWIYPVTGDTYYNEKFKGKATLTSDKSSSTAYMQISSLTSDDSAVYFCARGGGMFYYWGQGTLVTVSA
VL: ETTVTQSPALMAASPGEKVTITCSVSSSISSTNLHWYQQKSETSPKPWIYGTSNLASGVPVRFGGSGSGTSYSLTISSMEAEDAATYYCQQWSSYPYTFGGGTKLEIKR
notes: Murine IgG1; also called mAb OptD11; OptD11 c-Met antibody
In test [2], B2 had a Kd of 0.12 nM, a koff of 9e-06 s⁻¹ and a kon of 160000 M⁻¹ s⁻¹. Also, in test [3], the Kd came to 0.35 nM, the koff came out at 4.7e-05 s⁻¹ and the kon was 130000 M⁻¹ s⁻¹. Further, the binding result in test [4] is listed as “no binding (tested: 0.5 µg/mL)”. In test [5], the “Stoichiometry (mAb to cMet-Fc)” value came out at 0.89.
